Results reported in US9074002B2, “PTP1B inhibitors” (Cold Spring Harbor Laboratory, priority 2009, dated 2015).

T1: PTP1B-OX (purified recombinant 37 kDa PTP1B, reversibly oxidized with H2O2) (human, UniProt P18031 1-321, catalytic Cys 215 reversibly oxidized by H2O2 (cyclic sulphenamide form))
T1 construct: also called PTP1B-SN
T1 sequence: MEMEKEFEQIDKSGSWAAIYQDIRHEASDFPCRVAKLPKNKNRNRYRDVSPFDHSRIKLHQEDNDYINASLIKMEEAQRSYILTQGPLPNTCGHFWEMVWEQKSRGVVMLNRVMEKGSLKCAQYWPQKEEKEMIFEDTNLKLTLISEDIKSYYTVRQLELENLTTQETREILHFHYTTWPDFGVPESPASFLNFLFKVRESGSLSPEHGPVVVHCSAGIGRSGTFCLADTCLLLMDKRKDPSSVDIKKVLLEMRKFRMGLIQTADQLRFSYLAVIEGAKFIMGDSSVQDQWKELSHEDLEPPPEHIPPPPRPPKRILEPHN

T2: PTP1B under reducing condition (purified recombinant 37 kDa wild type PTP1B, with TCEP) (human, UniProt P18031 1-321)
T2 construct: Same protein as m1 but kept reduced (2 mM TCEP); also called reduced, active PTP1B
T2 sequence: T1 sequence

B1: scFv21 (scFv)
scFv: LTQPSSVSANPGGTVKITCSGSSGSYYGWYQQKSPGSAPVTVIYDNDKRPSDVPSRFSGSKSGPTATLTITGVQAEDEAVYFCGSRDNSYVGIFGAGTTLTVLGQSSRSSAVTLDESGGGLQTPGGALSLVCKASGFTFSSYDMFWVRQAPGKGLEFVAQINSAGSYTNYGSAVKGRATISRDDGQSTVRLQLNNLRAEDTGIYFCAKSASGYYYSGSDAGDIDAWGHGTEVIVSSTSGQAGQHHHHHHGAYPYDVPDYAS
B2: scFv20 (scFv)
scFv: LTQPSSVSANLGGIVEITCSGSSGSYGWYQQKSPGSAPVTVIYYNDKRPSNIPSRFSGSGSGSTNTLTIAGVRAEDEAVYYCGNEDSSGAAFGAGTTLTVLGQSSRSSAVTLDESGGGLQTPGGGLSLVCKASGFTFSDYDMFWVRQAPSKGLEFVAAITSSGTGTKYGAAVKGRATISKDNGQRTVRLQLNSLGAEDTGTYYCARSDADSTTWSAGEIDAWGHGTEVIVSSTSGQAGQHHHHHHGAYPYDVPDYAS
B3: scFv48 (scFv)
scFv: LTQPSSVSANPGETVKITCSEGGRSSYYGWYQQKAPGSAPVTVIYDSSSRPSDIPSRFSGSKSGSTGTLTITGVQAEDEAVYYCGSTDSSTSAAIFGAGTTLTVLGQSSRSSTVTLDESGGGLQTPGRALSLVCKASGFTFSSFNMGWVRQAPGKGLEYVASISSSGSYTAYGSAVKGRATISRDNGQSTVRLQLNNLRAEDTATYYCAKAAGSAYYYTAVTPAFAGSIDAWGHGTEVIVSSTSGQAGQHHHHHHGAYPYDVPDYAS

Biological target: T1, PTP1B-OX (purified recombinant 37 kDa …)
Experiment: in vitro Ni-NTA pull-down of purified scFv with purified PTP1B-OX, immunoblot
Description: (§1) In the in vitro binding assay, purified PTP was reversibly oxidized with […] followed by a quick buffer exchange to remove H_2O_2 (FIG. 8). Purified scFv was incubated in molar excess with PTP1B-OX or with PTP under reducing condition (with 2 mM TCEP) in binding buffer (20 mM HEPES, pH 7.4, 300 mM NaCl, 0.05% BSA, 0.05% Tween-20 and 10 mM imidazole) for 2 hours at 4° C. Ni-NTA agarose was added and incubated for one hour at 4° C. Protein complex bound to Ni-NTA agarose beads was pulled down and washed (three times, 5 minutes each, at 4° C.) with binding buffer containing 20 mM imidazole to reduce non-specific binding to the beads. The protein complex was eluted from the Ni-NTA agarose beads with 500 mM imidazole (in binding buffer, pH 7.4) for 15 minutes at 4° C. with gentle shaking. The complex was separated by SDS-PAGE and PTP1B was detected with anti-PTP1B antibody (FG6) and scFv was detected with anti-HA antibody [anti-HA (3F10)-HRP, Roche] by immunoblotting. Eight different scFvs (scFvs 20, 21, 24, 28, 45, 48, 57, and 105), expressed and purified from bacterial cultures were tested by this in vitro binding experiment.

binding result | Binder
no binding | B1
no binding | B2
no binding | B3

Biological target: T2, PTP1B under reducing condition …
Experiment: in vitro Ni-NTA pull-down of purified scFv with purified PTP1B in 2 mM TCEP, immunoblot
Description: as §1

binding result | Binder
no binding | B1
no binding | B2
no binding | B3
